Reference: patent US20240398920A1 (CYTOMX THERAPEUTICS, published 2024)
Read-outs that look alike come from different tables or passages of the source.

Columns and labels:
Assay in all cases: cell-based or functional assay
[1] = molecular target: T1, human herpes virus entry mediator (HVEM) (human, UniProt Q92956 39-283)
T1 sequence (looked up): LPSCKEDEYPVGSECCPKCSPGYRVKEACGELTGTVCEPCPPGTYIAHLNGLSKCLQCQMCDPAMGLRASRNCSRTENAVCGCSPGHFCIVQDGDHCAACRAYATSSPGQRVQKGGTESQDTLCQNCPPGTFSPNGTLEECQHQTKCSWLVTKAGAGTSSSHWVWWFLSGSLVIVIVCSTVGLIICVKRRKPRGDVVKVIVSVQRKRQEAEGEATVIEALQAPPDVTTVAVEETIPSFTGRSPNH

[2] = molecular target: T2, human lymphotoxin beta receptor (LTbR) (human, UniProt P36941 31-435)
T2 sequence (P36941 31-435): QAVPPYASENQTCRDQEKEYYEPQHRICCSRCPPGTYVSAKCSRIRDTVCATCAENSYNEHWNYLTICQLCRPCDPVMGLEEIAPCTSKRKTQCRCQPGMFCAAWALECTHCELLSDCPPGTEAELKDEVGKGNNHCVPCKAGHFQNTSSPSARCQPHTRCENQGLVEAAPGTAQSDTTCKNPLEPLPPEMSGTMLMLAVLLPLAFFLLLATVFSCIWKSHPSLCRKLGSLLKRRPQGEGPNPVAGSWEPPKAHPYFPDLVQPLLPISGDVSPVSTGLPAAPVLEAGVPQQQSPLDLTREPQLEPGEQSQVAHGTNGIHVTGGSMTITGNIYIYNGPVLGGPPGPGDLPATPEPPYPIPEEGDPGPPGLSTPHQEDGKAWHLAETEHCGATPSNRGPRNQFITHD

[3] = molecular target: T1, human herpes virus entry mediator (HVEM); remark: listed apart in the source
[4] = molecular target: T1, human herpes virus entry mediator (HVEM); remark: listed apart in the source
[5] = molecular target: T1, human herpes virus entry mediator (HVEM); remark: listed apart in the source
[6] = molecular target: T2, human lymphotoxin beta receptor (LTbR); remark: listed apart in the source
[7] = molecular target: T1, human herpes virus entry mediator (HVEM); remark: listed apart in the source
[8] = molecular target: T2, human lymphotoxin beta receptor (LTbR); remark: listed apart in the source
[9] = molecular target: T1, human herpes virus entry mediator (HVEM); remark: listed apart in the source

B1: ProC1192 + uPa (ligand, not shown: small tags and cut ends)
chain: GGSQERRSHEVNPAAHLTGANSSLTGSGGPLLWETQLGLAFLRGLSYHDGALVVTKAGYYYIYSKVQLGGVGCPLGLASTITHGLYKRTPRYPEELELLVSQQSPCGRATSSSRVWWDSSFLGGVVHLEAGEEVVVRVLDERLVRLRDGTRSYFGAFMVSGGGSGGGSGSAWSHPQFEK
EC50 [nM]: HVEM Reporter Assay [1]: 0.999 nM
EC50 [pM]: Lymphotoxin beta receptor Reporter Assay [2]: 2 pM

B2: ProC_LIGHT-10GS-His (ProC1189) (ligand)
chain: QERRSHEVNPAAHLTGANSSLTGSGGPLLWETQLGLAFLRGLSYHDGALVVTKAGYYYIYSKVQLGGVGCPLGLASTITHGLYKRTPRYPEELELLVSQQSPCGRATSSSRVWWDSSFLGGVVHLEAGEEVVVRVLDERLVRLRDGTRSYFGAFMVSGGGSGGGSGHHHHHH
EC50 [nM]: HVEM Reporter Assay [3]: 0.86 nM
EC50 [nM]: HVEM Reporter Assay [4]: 0.58 nM

B3: LIGHT-10GS-Strep (ProC1188) (ligand)
chain: QERRSHEVNPAAHLTGANSSLTGSGGPLLWETQLGLAFLRGLSYHDGALVVTKAGYYYIYSKVQLGGVGCPLGLASTITHGLYKRTPRYPEELELLVSQQSPCGRATSSSRVWWDSSFLGGVVHLEAGEEVVVRVLDERLVRLRDGTRSYFGAFMVSGGGSGGGSGSAWSHPQFEK
EC50 [nM]: HVEM Reporter Assay [5]: 0.843 nM
EC50 [pM]: Lymphotoxin beta receptor Reporter Assay [6]: 5.3 pM
EC50 [nM]: HVEM Reporter Assay [7]: 1 nM
EC50 [pM]: Lymphotoxin beta receptor Reporter Assay [8]: 5.3 pM

B4: ProC_mLm16_1490_LIGHT-10GS-Strep (ProC1192) (other)
chain: QGQSGSRHPCRHDPHIICYKFGGGSSGGSISSGLLSGRSDNIGGSQERRSHEVNPAAHLTGANSSLTGSGGPLLWETQLGLAFLRGLSYHDGALVVTKAGYYYIYSKVQLGGVGCPLGLASTITHGLYKRTPRYPEELELLVSQQSPCGRATSSSRVWWDSSFLGGVVHLEAGEEVVVRVLDERLVRLRDGTRSYFGAFMVSGGGSGGGSGSAWSHPQFEK
masking efficiency, HVEM Reporter Assay (EC50 against control ProC1188 or protease-activated ProC1192) [9]: > 20 fold
EC50 [nM]: HVEM Reporter Assay [7]: 25.6 nM
EC50 [pM]: Lymphotoxin beta receptor Reporter Assay [8]: 31.3 pM
